Measured values published in the nanobody polyreactivity screen of Harvey et al. (2022).

Assay: yeast display, Sf9 membrane polyspecificity reagent, FACS + sequencing; frameworks hold sequencing errors
Outline: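 After 36–48 hours of galactose induction, yeast (Saccharomyces cerevisiae BJ5465) displaying a synthetic nanobody library were stained at 4 °C for 1 hour with 10% biotinylated, detergent-solubilized Sf9 membrane reagent. Streptavidin microbeads enriched the stained cells before FACS sorting into low and high (top ~1%) gates on anti-HA and streptavidin fluorescence. Each clone's polyreactivity label reflects its gate of origin.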
For “QVQLVESGGGLVQAGGSLRLSCAASGGIFARNAMGWYRQAPGKVRELVAAISWSGGRTYYADSVKGRFTISRDNAKNTDYLQMNSLKPEDTAVYYSAADHDPWWAWEFDYWGQGTQVTVSS”, the “polyreactivity (PSR sort gate)” value was “low polyreactivity”.
With “QVQLVESGGGLVQAGGSLRLSCAASGGIFDANAMGWYRQAPGKERELVAAISSGGITKYADSVKGRFTISRDNAKNTVYLQMNSLKPEDTAVYYCAASWYRYRFIRYDYWGQGTQVTVSS” the “polyreactivity (PSR sort gate)” value was “high polyreactivity”.
With “QVQLVESGGGLVQAGGSLRLSCAASGGIFDRYAMGWKRQAPGKERELVAVISGSVNTYADSVKGRFTISRDNAKNTGYLRMNSLKPEDTAVYYCATQFEGPSGFNYWGQGTQVTVSS” the “polyreactivity (PSR sort gate)” value was “low polyreactivity”.
In the case of “QVQLVESGGGLVQAGGSLRLSCAASGGIFDSYALGWYRQAPGKERELVADITSGGSTNYADSVKGRFTISRDNAKNTVYLQMNSLKPEDTAVYYCARTVYGARSYDYWGQGTQVTVSS”, the “polyreactivity (PSR sort gate)” value was “low polyreactivity”.
In the case of “QVQLVESGGGLVQAGGSLRLSCAASGGIFDTYAMGWYRQAPGKERELVAAISANGGETYYADSVKGRFTISRDNAKTTVYLQMNSLKPEDTAVYYCAADGFLPILHPVPWSYYYPFGYWGQGTQVTVSS”, the “polyreactivity (PSR sort gate)” value was “low polyreactivity”.
With “QVQLVESGGGLVQAGGSLRLSCAASGGIFDYNAMGWYRQAPGKERELVAAITNGGSTNYADSVKGRFTISRDNAKNSVYLQMNSLKPEDTAVYYCATGYFYDYWGQGTQVTVSS” the “polyreactivity (PSR sort gate)” value was “low polyreactivity”.
In the case of “QVQLVESGGGLVQAGGSLRLSCAASGGIFERNDMGWYRQAPGKERELVAGISSVGSTNYADSVKGRFTISRDNAKNTVYLQMNSLKPEDTAVYYCAAGYSRAHDYWGQGTQVTVSS”, the “polyreactivity (PSR sort gate)” value was “low polyreactivity”.
For “QVQLVESGGGLVQAGGSLRLSCAASGGIFFLYAMGWYRQAPGKERELVAAIRQDGGSTYYADSVKGRFTISRDNAKNTVYLQMNSLKPEDTAVYYCNAGYVKTGLEYYYWGQGTQVTVSS”, the “polyreactivity (PSR sort gate)” value was “low polyreactivity”.
With “QVQLVESGGGLVQAGGSLRLSCAASGGIFGLYTMGWYRQAPGKERELVAAISKTGGSTYYADSVKGRFTISRDNAKHTVYLQMNSLKPEDTAVYYCAADGPYDDYEYWGQGTQVTVSS” the “polyreactivity (PSR sort gate)” value was “high polyreactivity”.
With “QVQLVESGGGLVQAGGSLRLSCAASGGIFGLYTMGWYRQAPGKERELVAGISKRGTRTRYADSVKGRFTISRDNAKNTVYLQMNSLKPEDTAVYYCNADYYVSKLDYWGQGTQVTVSS” the “polyreactivity (PSR sort gate)” value was “high polyreactivity”.
In the case of “QVQLVESGGGLVQAGGSLRLSCAASGGIFGRYAMGWYRQAPGKERELVAAISKRGGSTYYADSVKGRFTISRDNAKNTVYLQMNSLKPEDTAVYYCNAKRSLFGRYGYWGQGTQVTVSS”, the “polyreactivity (PSR sort gate)” value was “high polyreactivity”.
For “QVQLVESGGGLVQAGGSLRLSCAASGGIFGSYAMGWYRQAPGKERELVAAITSGGRTTYADSVKGRFTISRDNAKNTVYLQMNSLKPEDTAVYYCNAGRVFGNYFFRVYYYWGQGTQVTVSS”, the “polyreactivity (PSR sort gate)” value was “high polyreactivity”.
For “QVQLVESGGGLVQAGGSLRLSCAASGGIFHGNTMGWYRQAPGKERELVAAISNSGGSTYYADSVKGRFTISRDNAKNTVYLQMNSLKPEDTAVYYCARVGYKLYQYKYDYWGQGTQVTVSS”, the “polyreactivity (PSR sort gate)” value was “low polyreactivity”.
With “QVQLVESGGGLVQAGGSLRLSCAASGGIFKRYAMGWYRQAPGKERELVAAISGRGGGTYYADSVKGRFTISRDNATNTVYLQMTSLKPEDTAVYYCNARLSWSAFGYWGQGTQVTVSS” the “polyreactivity (PSR sort gate)” value was “high polyreactivity”.
With “QVQLVESGGGLVQAGGSLRLSCAASGGIFKWYDMGWYRQAPGKEREFVAAITWSGGSTYYADSVKGRFTISRDNAKNTVYLQMNSLKPEVTAVYYCNVDWYPRGPHTVVFYDVSPFDYWGQGTQVTVSS” the “polyreactivity (PSR sort gate)” value was “high polyreactivity”.
With “QVQLVESGGGLVQAGGSLRLSCAASGGIFLPNAMGWYRQAPGKERELVAAISTGGSTNYADSVKGRFTISRDTAKNTVYLQMNSLKPEDTAVYYCAATPYNYVGFSRGGDYWGQGTQVTVSS” the “polyreactivity (PSR sort gate)” value was “low polyreactivity”.
For “QVQLVESGGGLVQAGGSLRLSCAASGGIFLYYAMGWYSQAPGKVRELVAAISSRGGSTYYAHSVKGRYTISRDNAKNTVYLQMNSLKPEDTAVYYCAAESGYYRRTGIFYSWGQGTHVTVSS”, the “polyreactivity (PSR sort gate)” value was “high polyreactivity”.
In the case of “QVQLVESGGGLVQAGGSLRLSCAASGGIFPFYAMGWYRQAPGKERELVAAISSGGSTYYADSVKGRFTISRDNAKNTVYLQMNSLKPEDTAVYYCAKRISTRRYDYWGQGTQVTVSS”, the “polyreactivity (PSR sort gate)” value was “low polyreactivity”.
With “QVQLVESGGGLVQAGGSLRLSCAASGGIFPGNTMGWYRLAPRKESELVAAISNGVSTNYADSVKGRFTISRDNAKNTVYLQMNSLKPEDTAVYYCAADWSWWDGEDYHFEYDYWGQGTQVTVSS” the “polyreactivity (PSR sort gate)” value was “low polyreactivity”.
For “QVQLVESGGGLVQAGGSLRLSCAASGGIFQPNAMGWYRQAPGKERELVASISSDGSTNYADSVKGRFTISRDNAKNTVYLQMTSLKPEDTAVYYCAAAVKRGYAQSFISDGYGYWGQGTQVTVSS”, the “polyreactivity (PSR sort gate)” value was “low polyreactivity”.
In the case of “QVQLVESGGGLVQAGGSLRLSCAASGGIFRGYAMGWYRQAPGKERELVAAITKRGGRTYYADSVKGRFTISRDNAKNTVYLQMNSLKPEDTAVYYCAADYYAAYHLPDQDYDYWGQGTQVTVSS”, the “polyreactivity (PSR sort gate)” value was “high polyreactivity”.
In the case of “QVQLVESGGGLVQAGGSLRLSCAASGGIFRGYTMGWYRQAPGKERELVAAISKGGGSTYYADSVKGRFTISRDIAKNTVYLQMNSLKPEDTAVYYCAARHVYPLLDYWGQGTQVTVSS”, the “polyreactivity (PSR sort gate)” value was “high polyreactivity”.
In the case of “QVQLVESGGGLVQAGGSLRLSCAASGGIFRLYGMGWYRQAPGKERELVAAIRQSGGRTYYADSVKGRFTISRDNAKNTVYLQMNSLKPEDTAVYYCAADLLYRSSGSARLDYDYWGQGTQVTVSS”, the “polyreactivity (PSR sort gate)” value was “low polyreactivity”.
In the case of “QVQLVESGGGLVQAGGSLRLSCAASGGIFRQYAMGWYRQAPGKERELVAAISYNTGSTYYADSVKWRFTISRDNAKNTVYLQMNSLKPEDTAVYYCAKDIVIPATYVEYDYWGKGTQVTVSS”, the “polyreactivity (PSR sort gate)” value was “low polyreactivity”.
With “QVQLVESGGGLVQAGGSLRLSCAASGGIFRYAMGWYRQAPGKEREFVAAITTRGGSTYYADSVKGRFTISRDNAKNTVYLQMNSLKPEDTAVYYCAARPYSGRNKYDYWGQGTQVTVSS” the “polyreactivity (PSR sort gate)” value was “high polyreactivity”.
With “QVQLVESGGGLVQAGGSLRLSCAASGGIFRYNAMGWYRQAPGKERELVAAISYRGGSTYYADSVKGRFTISRDNAKNTVYLQMNSLKPEDTAVYYCAAVYYQDKRGDYWGQGTQVTVSS” the “polyreactivity (PSR sort gate)” value was “high polyreactivity”.
For “QVQLVESGGGLVQAGGSLRLSCAASGGIFRYYAMGWYRQAPGKERELVARISRRAGSTYYADSVKGRFTISRDNAKNTVYLQMNSLKPEDTAVYYCNKVGGTLGYDYWGQGTQVTVSS”, the “polyreactivity (PSR sort gate)” value was “high polyreactivity”.
For “QVQLVESGGGLVQAGGSLRLSCAASGGIFSCKAMGWYRQAPGKERELVAAITTRGGSTYYADSVKGRFTISRDNAKNSVYLQMNSLKPEDTAVYYCAAEGYEEFNWGQGTQVTVSS”, the “polyreactivity (PSR sort gate)” value was “low polyreactivity”.
In the case of “QVQLVESGGGLVQAGGSLRLSCAASGGIFSSYAMGWYRQAPGKERELVADISWNGDSTYYADSVKGRFTISRDNAKNTVYLQMNSLKPEDTAVYYCNAQWYFTPGTPVDYWGQGTQLTVSS”, the “polyreactivity (PSR sort gate)” value was “low polyreactivity”.
In the case of “QVQLVESGGGLVQAGGSLRLSCAASGGIFSVYAMGLYRQAPGKERELVASITVSGGSTSYADSVKGRFTISRDNAKNTVYLQMNSLKPEDTAVYYCNTDFGQAHTLSWYEDMDYWGQGTQVTVSS”, the “polyreactivity (PSR sort gate)” value was “low polyreactivity”.
With “QVQLVESGGGLVQAGGSLRLSCAASGGIFSVYGMGWYRQAPGKERELVAVIRRGGSTYYADSVKGRFTISRDNAKNTVYLQMNSLKPEDTAVYYCATDYPGYFVDGNYYWGQGTQVTVSS” the “polyreactivity (PSR sort gate)” value was “low polyreactivity”.
In the case of “QVQLVESGGGLVQAGGSLRLSCAASGGIFSYYAMGWSRQSPGKEREFVAAIDWGGGSTYYADSVKGRFTISRDNAKNTLNLQMNSLKPEDTAVYYCAAEIYPIRWDDYDYWGQGTQVTVSS”, the “polyreactivity (PSR sort gate)” value was “low polyreactivity”.
For “QVQLVESGGGLVQAGGSLRLSCAASGGIFSYYAMGWYIQAPGKERELVAAISGSGGRTYYADSVKGRFTLSRDNAKNTVYLQMNSLKPEDTAVYYCAAYPVNRVDYRYDYWGQGTQVTVSS”, the “polyreactivity (PSR sort gate)” value was “high polyreactivity”.
For “QVQLVESGGGLVQAGGSLRLSCAASGGIFTAYPMGWSRQAPGKERELVATITRGGSTNYADSVKGRFTISRDNAKNTVYLQMNSLKPEDTAVYYCNARYSWRSKWWTEDDYWGQGTQVTVSS”, the “polyreactivity (PSR sort gate)” value was “high polyreactivity”.
In the case of “QVQLVESGGGLVQAGGSLRLSCAASGGIFTAYTIGWYRQAPGKERELVATITRGGSTNYADSVKGRFTISRDNAMNTVYLQMNSLKPEDTAVYYCNARVQRRGVQYYYWGHGTQVTVSS”, the “polyreactivity (PSR sort gate)” value was “high polyreactivity”.
For “QVQLVESGGGLVQAGGSLRLSCAASGGIFTGYAMGRYRQAPGKERELVAAISSGGTTYYADSVKGRFTISRDNAKNTVDLQMNSLKPEDTAVYYCAAGFYLRAVWMDYWGQGSQVTVSS”, the “polyreactivity (PSR sort gate)” value was “high polyreactivity”.
In the case of “QVQLVESGGGLVQAGGSLRLSCAASGGIFTLYVRGWYRQAPGKERELVAAISRTGGSTYYADSVKGRFTISRDNAKNTVYLQMNSLKPEDTAVYFCAALYRGGTRYGGYDYWGQGTQVTVSS”, the “polyreactivity (PSR sort gate)” value was “low polyreactivity”.
In the case of “QVQLVESGGGLVQAGGSLRLSCAASGGIFTSYDMGWYRQAPAKEREFVAGISDSGGSTYYADSVKGRFTISRDNAKNTVYLQMNSLKPEDTAVYYFAADAWYVWEYWWQTEDDYWGQGTEVTVSS”, the “polyreactivity (PSR sort gate)” value was “high polyreactivity”.
For “QVQLVESGGGLVQAGGSLRLSCAASGGIFTYYAMGGYRQAPGKERELVAAITWSGGSTYYADSVKGRFTISRDNAKNTVYLQMNSLKPEETAVYYCNAVVLHVTTDNSTFTTDDYWGHGTQVTVSS”, the “polyreactivity (PSR sort gate)” value was “low polyreactivity”.
With “QVQLVESGGGLVQAGGSLRLSCAASGGIFVPYAMGWYRQAPGKERELVAGITSGGSTNYADSVKGRFTISRDNAKNTVYLQMNSLKPVDTAVYYCAARRRPGGRYKSRVWYDYWGQGTQVTVSS” the “polyreactivity (PSR sort gate)” value was “high polyreactivity”.
